The assay concerns the target type I interferon receptor (IFNAR1 and IFNAR2) on cells (human) (UniProt P17181). In words: cell-based or functional assay.

Chain of type I interferon receptor (IFNAR1 and IFNAR2) on cells (human) (P17181 28-557, chain 1 of 2): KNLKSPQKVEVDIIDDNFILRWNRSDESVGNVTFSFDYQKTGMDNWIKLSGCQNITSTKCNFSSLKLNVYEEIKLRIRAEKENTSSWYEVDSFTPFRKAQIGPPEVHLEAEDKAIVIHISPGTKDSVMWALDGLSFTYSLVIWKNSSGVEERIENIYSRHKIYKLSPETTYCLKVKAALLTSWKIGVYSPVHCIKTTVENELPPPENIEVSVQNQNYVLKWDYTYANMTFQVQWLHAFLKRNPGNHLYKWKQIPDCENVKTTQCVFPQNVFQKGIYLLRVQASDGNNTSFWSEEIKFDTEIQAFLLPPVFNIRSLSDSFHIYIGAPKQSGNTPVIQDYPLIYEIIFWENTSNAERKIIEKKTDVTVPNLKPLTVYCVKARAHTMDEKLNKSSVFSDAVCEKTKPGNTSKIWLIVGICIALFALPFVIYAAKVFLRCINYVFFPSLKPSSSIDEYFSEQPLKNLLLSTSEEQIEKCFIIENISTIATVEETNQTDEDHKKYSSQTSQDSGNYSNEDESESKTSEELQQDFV
Chain of type I interferon receptor (IFNAR1 and IFNAR2) on cells (human) (P48551 27-515, chain 2 of 2, further chain): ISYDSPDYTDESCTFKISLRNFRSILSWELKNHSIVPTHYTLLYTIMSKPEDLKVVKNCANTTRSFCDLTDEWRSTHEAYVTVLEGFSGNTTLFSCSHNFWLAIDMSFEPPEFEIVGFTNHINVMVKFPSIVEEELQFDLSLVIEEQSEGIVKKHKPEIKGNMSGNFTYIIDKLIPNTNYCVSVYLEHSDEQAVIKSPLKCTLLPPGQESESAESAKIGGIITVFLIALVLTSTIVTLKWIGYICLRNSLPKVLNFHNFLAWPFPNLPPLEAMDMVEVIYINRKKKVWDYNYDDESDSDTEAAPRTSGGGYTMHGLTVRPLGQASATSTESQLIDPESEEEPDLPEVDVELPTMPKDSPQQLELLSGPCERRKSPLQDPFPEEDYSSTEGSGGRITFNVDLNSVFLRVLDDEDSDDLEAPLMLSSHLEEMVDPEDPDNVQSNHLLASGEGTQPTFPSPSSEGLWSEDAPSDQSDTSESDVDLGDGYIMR

In the case of “human interferon-β1 (IFNβ), free wild type (from UniProt P01574 22-187) (ligand)”, the EC50 Off Target (pM) iLite turned out to be 0.799 pM and the EC50 On Target (PM) ARP-1 came to 0.0105 nM.

For the origin of these results see patent publication US20170233449A1.
